Experimental data: publication PMC3235118, “Juvenile Hormone (JH) Esterase of the Mosquito Culex quinquefasciatus Is Not a Target of the JH Analog Insecticide Methoprene” (PLoS ONE, 2011)

Columns and labels:
[1] = biological target: T1, CqJHE (Culex quinquefasciatus, UniProt R4HZP1); experiment: competition in JH III partition assay; format: biochemical
T1 construct: gene jhe; full-length cDNA (ORF 1746 nt) from 4th instar larvae, predicted 19-residue signal peptide removed on secretion, mature 563 residues, 63,430 Da; recombinant baculovirus AcCqJHE in High Five cells, secreted
T1 sequence (R4HZP1 20-582): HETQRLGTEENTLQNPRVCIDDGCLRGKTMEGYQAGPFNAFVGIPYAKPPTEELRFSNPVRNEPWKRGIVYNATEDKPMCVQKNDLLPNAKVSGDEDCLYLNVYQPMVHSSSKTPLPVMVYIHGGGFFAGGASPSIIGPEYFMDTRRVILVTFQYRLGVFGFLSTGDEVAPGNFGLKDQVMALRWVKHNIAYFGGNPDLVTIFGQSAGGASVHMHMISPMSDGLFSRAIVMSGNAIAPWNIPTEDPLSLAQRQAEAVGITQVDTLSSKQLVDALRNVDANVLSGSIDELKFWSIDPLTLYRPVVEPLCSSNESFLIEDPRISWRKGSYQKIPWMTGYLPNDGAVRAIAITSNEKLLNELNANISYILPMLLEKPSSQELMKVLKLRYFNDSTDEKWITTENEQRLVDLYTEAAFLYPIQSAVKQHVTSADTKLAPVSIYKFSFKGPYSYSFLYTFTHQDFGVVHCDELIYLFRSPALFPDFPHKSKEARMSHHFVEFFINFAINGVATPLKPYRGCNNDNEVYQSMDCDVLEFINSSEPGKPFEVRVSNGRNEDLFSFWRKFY

[2] = biological target: T1, CqJHE; experiment: JH III partition assay (radiolabelled JH III), […] min preincubation; format: biochemical
[3] = substrate: CC(=O)Oc1ccc([N+](=O)[O-])cc1; experiment: spectrophotometric, OD405; format: biochemical, Culex quinquefasciatus; conditions: 50 mM sodium phosphate pH 7.4, 30°C
From the text: spectrophotometric, OD405 on CqJHE

[4] = substrate: CC(=O)Oc1cccc2ccccc12; experiment: spectrophotometric, OD450; format: biochemical, Culex quinquefasciatus; conditions: glycine-NaOH pH 9.0, 30°C
From the text: spectrophotometric, OD450 on CqJHE

[5] = substrate: COC(=O)/C=C(\C)CC/C=C(\C)CC[C@H]1OC1(C)C; experiment: JH III partition assay (radiolabelled JH III); format: biochemical, Culex quinquefasciatus; conditions: 50 mM sodium phosphate pH 7.4, 30°C
From the text: JH III partition assay (radiolabelled JH III) on CqJHE

For `C#CCOC(=O)/C=C(C)/C=C/CC(C)CCCC(C)C` (stereo not drawn) [kinoprene], which inhibition at 5 µM [1] is on record?
Its inhibition at 5 µM is 50%.

With `CCCCCCCCSCC(=O)C(F)(F)F` [OTFP, 3-octylthio-1,1,1-trifluoropropan-2-one] as the molecule, how does the IC50 [2] read?
Its IC50 is 0.23 ± 0.05 nM.

`CCOC(=O)/C=C(C)/C=C/C[C@@H](C)CCCC(C)C` [hydroprene] was tested. Which inhibition at 5 µM [1] did it give?
The inhibition at 5 µM was 40%.

B1: CqJHE (Culex quinquefasciatus) (protein)
chain: T1 sequence (R4HZP1 20-582)
notes: full-length cDNA (ORF 1746 nt) from 4th instar larvae, predicted 19-residue signal peptide removed on secretion, mature 563 residues, 63,430 Da; recombinant baculovirus AcCqJHE in High Five cells, secreted
How did the Km [3] turn out when B1 was run?
The Km was 340 ± 17 µM.

And the Vmax [3]?
Its Vmax is 120 µmol/min/mg.

What about the kcat [3] of the same molecule?
The kcat was 130 s⁻¹.

What about the kcat/Km [3] of the same molecule?
Its kcat/Km is 380000 M⁻¹ s⁻¹.

And the Km [4]?
Its Km is 2960 ± 420 µM.

And the Vmax [4]?
Its Vmax is 20 µmol/min/mg.

And the kcat [4]?
Its kcat is 21 s⁻¹.

And the kcat/Km [4]?
Its kcat/Km is 7100 M⁻¹ s⁻¹.

And the Km [5]?
Its Km is 0.13 ± 0.02 µM.

What about the Vmax [5] of the same molecule?
The Vmax was 1.2 µmol/min/mg.

And the kcat [5]?
Its kcat is 1.3 s⁻¹.

And the kcat/Km [5]?
Its kcat/Km is 1e+07 M⁻¹ s⁻¹.
